The assay has as its target NFS1 as crystallised in the (NIAU2)2 complexes (human). Kind of assay: crystal structure; (NIAU2)2 complexes with wild-type or mutant ISCU2, 16-18 mg/ml, sitting drop, 0.1 M MES pH 6.5, 22.5% PEG-400, 15 °C; space group P41212; 1.57-1.95 Å.

In publication PMC8617193 one finds stoichiometry N data, which are given here for one substance.

Consider “NFS1 as crystallised in the (NIAU2)2 complexes (enzyme)”, for which the stoichiometry N (commonly a count of units in the complex or per binding partner) amounted to 2.
